Source: patent US20210301005A1 (Genentech, published 2021)
Changes are numbered by the printed parent chain. Like-named read-outs stand apart in the source and are kept apart here. Each block holds one binder with its values, some of them ahead of it.

Assays:
[1] = target: T1, human TGFβ3, mature dimeric form (human, UniProt P10600 301-412); assay: BIAcore T200
T1 construct: Peprotech, expressed in E. coli; also called TGFb3
T1 sequence: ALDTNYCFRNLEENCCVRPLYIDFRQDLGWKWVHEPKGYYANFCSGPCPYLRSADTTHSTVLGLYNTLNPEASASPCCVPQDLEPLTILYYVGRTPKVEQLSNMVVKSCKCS
Method: (§1) For binding affinity determinations of all humanized 2A10 antibodies, Surface Plasmon Resonance (SPR) measurement with a BIAcore™-T200 instrument was used. Briefly, series S CM5 biosensor chip with protein A was first applied to capture each humanized 2A10 variant to achieve approximately 100 response units (RU) on each flow cell, following by injection of 3-fold serial dilutions of human TGFβ1, TGFβ2 or TGFβ3 (0.02 nM to 5 nM) in HBS-EP buffer (0.01M HEPES pH 7.4, 0.15M NaCl, 3 mM EDTA and 0.05% v/v surfactant P20) at 25° C. with a flow rate of 50 μl/min for kinetics measurement. Association rates (ko.) and dissociation rates (koff) were calculated using a simple one-to-one Langmuir binding model (BIAcore T200 evaluation software version 2.0) to determine the equilibrium dissociation constant (KD), which was calculated as the ratio koff/kₒₙ.
(§2) Binding affinity determinations of all humanized 4A11 antibodies were performed using SPR measurement with a BIAcore™-T200 instrument, as described above in Example 6 ([…]).

[2] = target: T2, human TGFβ2, mature receptor-binding domain (human, UniProt P09858 303-414 (pig entry), The mature TGFβ2 is a disulfide-linked homodimer of this 112-residue chain. The 4A11 epitope spans both monomers (p-1207).); assay: BIAcore T200
T2 construct: Peprotech; also called TGFb2
T2 sequence: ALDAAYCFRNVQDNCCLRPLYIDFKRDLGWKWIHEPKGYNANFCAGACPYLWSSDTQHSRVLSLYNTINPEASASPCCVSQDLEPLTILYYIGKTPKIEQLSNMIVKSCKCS
Method: as §1, §2

[3] = target: T1, human TGFβ3, mature dimeric form; assay: BIAcore T200; remark: listed apart in the source
Method: as §1, §2

[4] = target: T2, human TGFβ2, mature receptor-binding …; assay: BIAcore T200; remark: listed apart in the source
Method: as §1, §2

[5] = target: T3, human TGFβ1, mature receptor-binding domain (human, UniProt P01137 279-390); assay: BIAcore T200
T3 construct: Peprotech; also called TGFb1
T3 sequence (P01137 279-390 limits assumed): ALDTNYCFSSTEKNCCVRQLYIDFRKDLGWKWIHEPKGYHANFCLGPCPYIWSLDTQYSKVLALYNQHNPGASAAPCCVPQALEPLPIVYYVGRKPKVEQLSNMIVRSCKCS
Method: as §1, §2

[6] = target: T1, human TGFβ3, mature dimeric form; assay: cell-based or functional assay
[7] = target: T2, human TGFβ2, mature receptor-binding …; assay: cell-based or functional assay
[8] = target: T3, human TGFβ1, mature receptor-binding …; assay: cell-based or functional assay
[9] = target: T1, human TGFβ3, mature dimeric form; assay: BIAcore T200; remark: listed apart in the source
Method: as §1, §2

[10] = target: T2, human TGFβ2, mature receptor-binding …; assay: BIAcore T200; remark: listed apart in the source
Method: as §1, §2

[11] = target: T3, human TGFβ1, mature receptor-binding …; assay: BIAcore T200; remark: listed apart in the source
Method: as §1, §2

[12] = target: T1, human TGFβ3, mature dimeric form; assay: cell-based or functional assay; remark: listed apart in the source
[13] = target: T2, human TGFβ2, mature receptor-binding …; assay: cell-based or functional assay; remark: listed apart in the source
[14] = target: T3, human TGFβ1, mature receptor-binding …; assay: cell-based or functional assay; remark: listed apart in the source
[15] = target: T1, human TGFβ3, mature dimeric form; assay: cell-based or functional assay; remark: listed apart in the source
[16] = target: T2, human TGFβ2, mature receptor-binding …; assay: cell-based or functional assay; remark: listed apart in the source
[17] = target: T3, human TGFβ1, mature receptor-binding …; assay: cell-based or functional assay; remark: listed apart in the source
[18] = target: T2, human TGFβ2, mature receptor-binding …; assay: cell-based or functional assay; remark: listed apart in the source
[19] = target: T2, human TGFβ2, mature receptor-binding …; assay: SPR
[20] = target: T1, human TGFβ3, mature dimeric form; assay: cell-based or functional assay; remark: listed apart in the source
[21] = target: T2, human TGFβ2, mature receptor-binding …; assay: cell-based or functional assay; remark: listed apart in the source
[22] = target: T3, human TGFβ1, mature receptor-binding …; assay: cell-based or functional assay; remark: listed apart in the source
[23] = target: T4, mouse TGFβ2, mature peptide (mouse, UniProt P27090 303-414); assay: cell-based or functional assay
T4 sequence (looked up): T2 sequence with S59T, R60K, K94N

[24] = target: T2, human TGFβ2, mature receptor-binding …; assay: cell-based or functional assay; remark: listed apart in the source
[25] = target: T1, human TGFβ3, mature dimeric form; assay: cell-based or functional assay; remark: listed apart in the source
[26] = target: T2, human TGFβ2, mature receptor-binding …; assay: cell-based or functional assay; remark: listed apart in the source
[27] = target: T3, human TGFβ1, mature receptor-binding …; assay: cell-based or functional assay; remark: listed apart in the source
[28] = target: T1, human TGFβ3, mature dimeric form; assay: cell-based or functional assay; remark: listed apart in the source
[29] = target: T2, human TGFβ2, mature receptor-binding …; assay: cell-based or functional assay; remark: listed apart in the source
[30] = target: T3, human TGFβ1, mature receptor-binding …; assay: cell-based or functional assay; remark: listed apart in the source
[31] = target: T4, mouse TGFβ2, mature peptide; assay: Biacore SPR
[32] = target: T2, human TGFβ2, mature receptor-binding …; assay: Biacore SPR
[33] = target: T2, human TGFβ2, mature receptor-binding …; assay: BIAcore T200; remark: listed apart in the source
[34] = target: T2, human TGFβ2, mature receptor-binding …; assay: SPR; remark: listed apart in the source

- Kd [1]: 0.0097 nM
- Kd [2]: 0.0063 nM
- Kd [3]: 0.0097 nM
- Kd [4]: 0.0063 nM
- Kd [5]: > 5 nM
- HEKBlue TGFβ blocking IC50 [6]: 0.03 nM
- HEKBlue TGFβ blocking IC50 [7]: 0.09 nM
- HEKBlue TGFβ blocking IC50 [8]: > 200 nM
- Kd [9]: 0.0097 nM
- Kd [10]: 0.0063 nM
- Kd [11]: > 5 nM
- HEKBlue TGFβ blocking IC50 [12]: 0.03 nM
- HEKBlue TGFβ blocking IC50 [13]: 0.09 nM
- HEKBlue TGFβ blocking IC50 [14]: > 200 nM
- HEKBlue TGFβ blocking IC50 [15]: 0.03 nM
- HEKBlue TGFβ blocking IC50 [16]: 0.09 nM
- HEKBlue TGFβ blocking IC50 [17]: > 200 nM
B1: h4A11.v7 (antibody, human IgG1, kappa, N297G)
heavy: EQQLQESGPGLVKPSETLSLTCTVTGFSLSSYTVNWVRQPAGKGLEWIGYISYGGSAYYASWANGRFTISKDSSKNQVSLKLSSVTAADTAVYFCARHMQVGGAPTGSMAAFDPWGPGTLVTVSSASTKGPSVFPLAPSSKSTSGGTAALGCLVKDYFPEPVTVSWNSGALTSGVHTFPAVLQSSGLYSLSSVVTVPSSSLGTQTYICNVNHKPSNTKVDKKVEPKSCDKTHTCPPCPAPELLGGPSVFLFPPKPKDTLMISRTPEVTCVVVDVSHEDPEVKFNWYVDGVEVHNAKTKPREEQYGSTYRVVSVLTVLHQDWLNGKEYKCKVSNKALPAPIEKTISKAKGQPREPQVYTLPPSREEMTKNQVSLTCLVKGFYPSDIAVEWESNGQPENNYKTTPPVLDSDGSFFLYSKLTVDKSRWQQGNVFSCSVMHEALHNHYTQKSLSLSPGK
light: EAVLTQSPGTLSLSPGERATLSCQSSQSVYNNNYLSWFQQKPGQPPRLLIYGASTLTSGVPDRFSGSGSGTDFTLTISRLEPEDFAVYYCAGGYSGSSDKYAFGGGTKVEIKRTVAAPSVFIFPPSDEQLKSGTASVVCLLNNFYPREAKVQWKVDNALQSGNSQESVTEQDSKDSTYSLSSTLTLSKADYEKHKVYACEVTHQGLSSPVTKSFNRGEC

- cell-based IC50 [18]: < 0.25 nM
- fold potency against 1D11 [18]: ~100 fold
- Kd [19]: < 0.001 nM
- HEKBlue TGFβ blocking IC50 [20]: > 200 nM
- HEKBlue TGFβ blocking IC50 [21]: 0.004 nM
- HEKBlue TGFβ blocking IC50 [22]: > 200 nM
- IC50 (read off the curve) [23]: ~0.06 nM
- IC50 (read off the curve) [24]: ~0.03 nM
- HEKBlue TGFβ blocking IC50 [25]: > 200 nM
- HEKBlue TGFβ blocking IC50 [26]: 0.004 nM
- HEKBlue TGFβ blocking IC50 [27]: > 200 nM
- Blocking IC50 [28]: > 500 nM
- Blocking IC50 [29]: 0.04 nM
- Blocking IC50 [30]: > 500 nM
- Kd [31]: < 0.001 nM
- Kd [32]: < 0.001 nM
- Kd [33]: ≤ 0.0005 nM
- Kd [34]: < 0.01 nM
B2: 6F12 (antibody, V domains shown)
VH: QVQLKESGPGLVQPSQTLSLTCTVSGFSLTTYNVHWVRQPPGKGLEWMGLIWNTGGTRYNSALKSRLSISKDTSKSQVFLRMNSLQTEDTATYYCARDPVPNKWHFDFWGPGTMVTVSS
VL: DIQMTQSPASLSASLGETVTIECLASEDIYSNLAWYQQKPGKSPQLLIYDARSLQDGVPSRFSGSESGPQYSLEINSLQSEDAVTYFCQQHHAYPFTFGSGTKLEIK
notes: anti-TGFβ2; called rat and rabbit in different places; also called rat 6F12; r6F12
